Series [1] has as its system HeLa Kyoto. The experiment in a line: solubility in G1/S (NP-40 vs SDS abundance) (log2 ratio); higher = more soluble. Conditions: cell cycle stage: G1/S.
In series [2] the test system is HeLa Kyoto. Kind of series: melting temperature (median over replicates), in situ; higher = more thermally stable.
Series [3] relates to HeLa Kyoto. The experiment in a line: solubility change mitosis vs G1/S (difference of NP-40 vs SDS log2 ratios) (log2 ratio difference); higher = more soluble in mitosis.
The subject of series [4] is HeLa Kyoto. The experiment in a line: thermal stability score vs G1/S (z-score of summed log2 fold changes over temperatures); higher = more thermally stable than in G1/S.
Where [5] appears, read: cell cycle stage: early G1 (4.5 h after nocodazole release).
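Throughout, for melting temperature (median over replicates), in situ: HeLa Kyoto cells synchronized by double thymidine or nocodazole block, proteins quantified by TMT10plex mass spectrometry, three independent biological replicates.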
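Throughout, for solubility change mitosis vs G1/S (difference of NP-40 vs SDS log2 ratios): synchronized HeLa Kyoto cells (double thymidine block for G1/S, nocodazole release for mitosis), protein amounts in NP-40 versus SDS lysates quantified by mass spectrometry, three biological replicates.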
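Throughout, for solubility in G1/S (NP-40 vs SDS abundance): HeLa Kyoto cells arrested at G1/S by double thymidine block, proteins quantified by TMT10plex mass spectrometry in mild NP-40 versus SDS extracts, three biological replicates.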
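Throughout, for thermal stability score vs G1/S (z-score of summed log2 fold changes over temperatures): synchronized HeLa Kyoto cells, proteins quantified by TMT10plex mass spectrometry, three biological replicates, mitosis taken 0.5 h after nocodazole release, G1/S directly after double thymidine block.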

On to “MDPLGAPSQFVDVDTLPSWGDSCQDELNSSDTTAEIFQEDTVRSPFLYNKDVNGKVVLWKGDVALLNCTAIVNTSNESLTDKNPVSESIFMLAGPDLKEDLQKLKGCRTGEAKLTKGFNLAARFIIHTVGPKYKSRYRTAAESSLYSCYRNVLQLAKEQSMSSVGFCVINSAKRGYPLEDATHIALRTVRRFLEIHGETIEKVVFAVSDLEEGTYQKLLPLYFPRSLKEENRSLPYLPADIGNAEGEPVVPERQIRISEKPGAPEDNQEEEDEGLGVDLSFIGSHAFARMEGDIDKQRKLILQGQLSEAALQKQHQRNYNRWLCQARSEDLSDIASLKALYQTGVDNCGRTVMVVVGRNIPVTLIDMDKALLYFIHVMDHIAVKEYVLVYFHTLTSEYNHLDSDFLKKLYDVVDVKYKRNLKAVYFVHPTFRSKVSTWFFTTFSVSGLKDKIHHVDSLHQLFSAISPEQIDFPPFVLEYDARENGPYYTSYPPSPDL [GDAP2]”, for which the “solubility in G1/S (log2)” value in series [1] was determined as 0.111. In addition, the melting temperature was found to be 48.2 °C in series [2] (cell cycle stage: G1/S) and 49.1 °C in series [2] (cell cycle stage: mitosis). Further, in series [3], the “solubility change mitosis (log2)” value is -0.148. The thermal stability score in series [4] (setting [5]) was 0.35; in series [4] (cell cycle stage: mitosis), 0.405.
As for “MDPSLLRERELFKKRALSTPVVEKRSASSESSSSSSKKKKTKVEHGGSSGSKQNSDHSNGSFNLKALSGSSGYKFGVLAKIVNYMKTRHQRGDTHPLTLDEILDETQHLDIGLKQKQWLMTEALVNNPKIEVIDGKYAFKPKYNVRDKKALLRLLDQHDQRGLGGILLEDIEEALPNSQKAVKALGDQILFVNRPDKKKILFFNDKSCQFSVDEEFQKLWRSVTVDSMDEEKIEEYLKRQGISSMQESGPKKVAPIQRRKKPASQKKRRFKTHNEHLAGVLKDYSDITSSK [GTF2E2]”, in series [1], the “solubility in G1/S (log2)” value was 0.797. The melting temperature was found to be 48.9 °C in series [2] (cell cycle stage: G1/S) and 50.2 °C in series [2] (cell cycle stage: mitosis). For the same sequence, the “solubility change mitosis (log2)” value in series [3] is 0.135. For the same sequence, the thermal stability score in series [4] (setting [5]) stood at 1.36; in series [4] (cell cycle stage: mitosis) it was 3.1.
With “MDPTAGSKKEPGGGAATEEGVNRIAVPKPPSIEEFSIVKPISRGAFGKVYLGQKGGKLYAVKVVKKADMINKNMTHQVQAERDALALSKSPFIVHLYYSLQSANNVYLVMEYLIGGDVKSLLHIYGYFDEEMAVKYISEVALALDYLHRHGIIHRDLKPDNMLISNEGHIKLTDFGLSKVTLNRDINMMDILTTPSMAKPRQDYSRTPGQVLSLISSLGFNTPIAEKNQDPANILSACLSETSQLSQGLVCPMSVDQKDTTPYSSKLLKSCLETVASNPGMPVKCLTSNLLQSRKRLATSSASSQSHTFISSVESECHSSPKWEKDCQESDEALGPTMMSWNAVEKLCAKSANAIETKGFNKKDLELALSPIHNSSALPTTGRSCVNLAKKCFSGEVSWEAVELDVNNINMDTDTSQLGFHQSNQWAVDSGGISEEHLGKRSLKRNFELVDSSPCKKIIQNKKTCVEYKHNEMTNCYTNQNTGLTVEVQDLKLSVHKSQQNDCANKENIVNSFTDKQQTPEKLPIPMIAKNLMCELDEDCEKNSKRDYLSSSFLCSDDDRASKNISMNSDSSFPGISIMESPLESQPLDSDRSIKESSFEESNIEDPLIVTPDCQEKTSPKGVENPAVQESNQKMLGPPLEVLKTLASKRNAVAFRSFNSHINASNNSEPSRMNMTSLDAMDISCAYSGSYPMAITPTQKRRSCMPHQQTPNQIKSGTPYRTPKSVRRGVAPVDDGRILGTPDYLAPELLLGRAHGPAVDWWALGVCLFEFLTGIPPFNDETPQQVFQNILKRDIPWPEGEEKLSDNAQSAVEILLTIDDTKRAGMKELKRHPLFSDVDWENLQHQTMPFIPQPDDETDTSYFEARNTAQHLTVSGFSL [MASTL]”, in series [1], the “solubility in G1/S (log2)” value is 0.0696. For the same sequence, the melting temperature amounted to 48.4 °C in series [2] (cell cycle stage: G1/S) and 50.5 °C in series [2] (cell cycle stage: mitosis). In series [3], the “solubility change mitosis (log2)” value was -0.0152. For the same sequence, the thermal stability score was found to be 2.99 in series [4] (setting [5]) and 5.64 in series [4] (cell cycle stage: mitosis).
Turning to “MDQCVTVERELEKVLHKFSGYGQLCERGLEELIDYTGGLKHEILQSHGQDAELSGTLSLVLTQCCKRIKDTVQKLASDHKDIHSSVSRVGKAIDKNFDSDISSVGIDGCWQADSQRLLNEVMVEHFFRQGMLDVAEELCQESGLSVDPSQKEPFVELNRILEALKVRVLRPALEWAVSNREMLIAQNSSLEFKLHRLYFISLLMGGTTNQREALQYAKNFQPFALNHQKDIQVLMGSLVYLRQGIENSPYVHLLDANQWADICDIFTRDACALLGLSVESPLSVSFSAGCVALPALINIKAVIEQRQCTGVWNQKDELPIEVDLGKKCWYHSIFACPILRQQTTDNNPPMKLVCGHIISRDALNKMFNGSKLKCPYCPMEQSPGDAKQIFF [RMND5A]”, in series [1], the “solubility in G1/S (log2)” value stood at 0.298. In series [2] (cell cycle stage: G1/S), this sequence yielded a melting temperature of 51.1 °C. In addition, in series [3], the “solubility change mitosis (log2)” value is -0.047. Besides, the values for the thermal stability score in series [4] (setting [5]) and in series [4] (cell cycle stage: mitosis) were 0.294 and 0.672, respectively.
Take “MDQPFTVNSLKKLAAMPDHTDVSLSPEERVRALSKLGCNITISEDITPRRYFRSGVEMERMASVYLEEGNLENAFVLYNKFITLFVEKLPNHRDYQQCAVPEKQDIMKKLKEIAFPRTDELKNDLLKKYNVEYQEYLQSKNKYKAEILKKLEHQRLIEAERKRIAQMRQQQLESEQFLFFEDQLKKQELARGQMRSQQTSGLSEQIDGSALSCFSTHQNNSLLNVFADQPNKSDATNYASHSPPVNRALTPAATLSAVQNLVVEGLRCVVLPEDLCHKFLQLAESNTVRGIETCGILCGKLTHNEFTITHVIVPKQSAGPDYCDMENVEELFNVQDQHDLLTLGWIHTHPTQTAFLSSVDLHTHCSYQLMLPEAIAIVCSPKHKDTGIFRLTNAGMLEVSACKKKGFHPHTKEPRLFSICKHVLVKDIKIIVLDLR [STAMBPL1]”: the “solubility in G1/S (log2)” value in series [1] was -0.0141. In addition, the values for the melting temperature in series [2] (cell cycle stage: G1/S) and in series [2] (cell cycle stage: mitosis) were 50.3 °C and 51 °C, respectively. Also, the “solubility change mitosis (log2)” value in series [3] was -0.137. Besides, the thermal stability score in series [4] (setting [5]) is -0.397; in series [4] (cell cycle stage: mitosis) it was -0.032.

For the origin of these results see the supplement of paper PMC5998384.
